According to PMC9716232:
pKd: −log10 of the molar value.

Target: complement component 3b (C3b) (human) (UniProt P01024)
Assay: SPR; equilibrium: each FH sample injected at 0.0156-2 uM, in duplicate, over 1500 RUs of C3b amine-coupled on a Biacore CM5 sensor chip; fit to a 1:1 equilibrium model (Biacore software)

Row | Substance | pKd
1 | FH variant Arg567Gly (from UniProt P08603 19-1231) (natural protein) | 5.38
2 | FH variant Arg1210Cys (from UniProt P08603 19-1231) (natural protein) | 5.71

Next, values leading:

Row | pKd | Substance
3 | 5.50 | FH variant Arg53His (from UniProt P08603 19-1231) (natural protein)
4 | 5.19 | FH variant Arg175Pro (from UniProt P08603 19-1231) (natural protein)
5 | 5.77 | control factor H (FH) (from UniProt P08603 19-1231) (natural protein)
